The values below come from the supplement of paper PMC10567573.

The labels stand for the following.
B1: PLAGL1 (parent)
chain: LELGSTEVLLDHLKAHAEEKPPSG
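Further: lentivirally expressed fusions sorted by FACS into six bins by GFP to DsRed ratio, PSI derived from sequencing read proportions per bin multiplied by bin number.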

In this data set the parent is B1. Description: protein stability index of a GFP-peptide fusion (GPS, HEK-293T) (PSI 1-6); higher = more stable. To be noted: c terminus: a fixed tail appended.
On to LELWSTEVLLDHLKAHAEEKPPSG [G4W], for which the protein stability index is 2.2.

Turning to LELVSTEVLLDHLKAHAEEKPPSG [G4V], the protein stability index came out at 3.28. The value for LELPSTEVLLDHLKAHAEEKPPSG [G4P] was 4.77. Consider LELSSTEVLLDHLKAHAEEKPPSG [G4S], for which the protein stability index stood at 4.14. In the case of LELQSTEVLLDHLKAHAEEKPPSG [G4Q], the protein stability index was 3.68. For the variant LELRSTEVLLDHLKAHAEEKPPSG [G4R], the protein stability index was found to be 3.94. Consider LELHSTEVLLDHLKAHAEEKPPSG [G4H], for which the protein stability index was 3.83.

LELISTEVLLDHLKAHAEEKPPSG [G4I]: the protein stability index was determined as 2.58. As for LELASTEVLLDHLKAHAEEKPPSG [G4A], the protein stability index was determined as 2.89. For LEDGSTEVLLDHLKAHAEEKPPSG [L3D], the protein stability index was 5.79. For the variant LEFGSTEVLLDHLKAHAEEKPPSG [L3F], the protein stability index was determined as 4.33.

Regarding LEPGSTEVLLDHLKAHAEEKPPSG [L3P], the protein stability index came out at 5.88. For LEGGSTEVLLDHLKAHAEEKPPSG [L3G], the protein stability index came to 5.74. With LENGSTEVLLDHLKAHAEEKPPSG [L3N] the figure was 5.67; with LEAGSTEVLLDHLKAHAEEKPPSG [L3A], 5.17.

Regarding LELGSTEVLLDHLKAHADEKPPSG [E18D], the protein stability index stood at 4.55.

Consider LELGSTEVLLDHLKAHAVEKPPSG [E18V], for which the protein stability index is 2.71.

LELGSTEVLLDHLKAHAYEKPPSG [E18Y]: the protein stability index came out at 3.25. The value for LELGSTEVLLDHLKAHAIEKPPSG [E18I] was 2.62. Turning to LELGSTEVLLDHLKAHATEKPPSG [E18T], the protein stability index was 3.59. As to LELGSTEVLLDHLKAHAQEKPPSG [E18Q], the protein stability index was determined as 3.94.

As for LELGSTEVLLDHLKAHAHEKPPSG [E18H], the protein stability index is 3.27. LELGSTEVLLDHLKAHAGEKPPSG [E18G]: the protein stability index was 2.66. Take LELGSTEVLLDHLKAHAREKPPSG [E18R]: the protein stability index was 2.15. Turning to LELGSTSVLLDHLKAHAEEKPPSG [E7S], the protein stability index amounted to 4.81. Consider LELGSTVVLLDHLKAHAEEKPPSG [E7V], for which the protein stability index was determined as 3.82. As to LELGSTAVLLDHLKAHAEEKPPSG [E7A], the protein stability index was 4.78. In the case of LELGSTKVLLDHLKAHAEEKPPSG [E7K], the protein stability index was 3.85. The value for LELGSTIVLLDHLKAHAEEKPPSG [E7I] was 3.69; that for LELGSTEVLLDNLKAHAEEKPPSG [H12N] was 5.15; that for LELGSTEVLLDPLKAHAEEKPPSG [H12P] was 5.48.

For LELGSTEVLLDLLKAHAEEKPPSG [H12L], the protein stability index worked out at 2.21. For LELGSTEVLLDDLKAHAEEKPPSG [H12D], the protein stability index was determined as 5.18. Regarding LELGSTEVLLDILKAHAEEKPPSG [H12I], the protein stability index stood at 3.02.

For the variant LELGSTEVLLDYLKAHAEEKPPSG [H12Y], the protein stability index was 2.44. On to LELGSTEVLLDKLKAHAEEKPPSG [H12K], for which the protein stability index came to 3.99. On to LELGSTEVLLDVLKAHAEEKPPSG [H12V], for which the protein stability index is 3.26. On to LELGSTEVLLDALKAHAEEKPPSG [H12A], for which the protein stability index was found to be 3.98.

For LELGSTEVLLDHLKAHLEEKPPSG [A17L], the protein stability index turned out to be 3.21. With LELGSTEVLLDHLKAHEEEKPPSG [A17E], the protein stability index came to 4.67. Consider LELGSTEVLLDHLKAHDEEKPPSG [A17D], for which the protein stability index worked out at 4.66. Regarding LELGSTEVLLDHLKAHGEEKPPSG [A17G], the protein stability index worked out at 4.35. As to LELGSTEVLLDHLKAHIEEKPPSG [A17I], the protein stability index came out at 3.37.

For LELGSTEVLLDHLKAHMEEKPPSG [A17M], the protein stability index was 2.74.

For LELGSTEVLLDHLKAHPEEKPPSG [A17P], the protein stability index was found to be 4.66. Regarding LELGSTEVLLDHLKAHSEEKPPSG [A17S], the protein stability index was determined as 4.01. With LELGSTEVLLDHLKAHREEKPPSG [A17R] the figure was 4.39; with LELGSTEVGLDHLKAHAEEKPPSG [L9G], 5.6; with LELGSTEVMLDHLKAHAEEKPPSG [L9M], 4.77. LELGSTEVTLDHLKAHAEEKPPSG [L9T]: the protein stability index worked out at 5.58. LELGSTEVELDHLKAHAEEKPPSG [L9E]: the protein stability index was 5.92.

Consider LELGSTEVNLDHLKAHAEEKPPSG [L9N], for which the protein stability index was found to be 5.71. Turning to LELGSTEVRLDHLKAHAEEKPPSG [L9R], the protein stability index turned out to be 4.63. With LELGSTEKLLDHLKAHAEEKPPSG [V8K] the figure was 4.51. LELGSTEMLLDHLKAHAEEKPPSG [V8M]: the protein stability index came to 3.54.

For LELGSTEALLDHLKAHAEEKPPSG [V8A], the protein stability index was 4.64. The value for LELGSTEYLLDHLKAHAEEKPPSG [V8Y] was 4.62; that for LELGSTEWLLDHLKAHAEEKPPSG [V8W] was 3.79. Consider LELGSTETLLDHLKAHAEEKPPSG [V8T], for which the protein stability index was 5.

On to LELGSTEQLLDHLKAHAEEKPPSG [V8Q], for which the protein stability index worked out at 4.75. On to LELGSTERLLDHLKAHAEEKPPSG [V8R], for which the protein stability index worked out at 4.96. With LELGSTEVLLDHLKAHAEEKPPLG [S23L], the protein stability index was found to be 4.22. The value for LELGSTEVLLDHLKAHAEEKPPNG [S23N] was 4.47.

Take LELGSTEVLLDHLKAHAEEKPPTG [S23T]: the protein stability index was 4.17. With LELGSTEVLLDHLKAHAEEKPPRG [S23R], the protein stability index amounted to 4.4.

As for LELGSTEVLLDHLKAHAEEKPISG [P22I], the protein stability index is 4.06. As to LELGSTEVLLDHLKAHAEEKPLSG [P22L], the protein stability index came to 3.9. For LELGSTEVLLDHLKAHAEEKPRSG [P22R], the protein stability index came out at 4.1. The value for LELGSTEVLLDHLKAHAEEKPHSG [P22H] was 4.03; that for LELGSTEVLLDHLKAHAEEKPWSG [P22W] was 3.38.

Consider LELGSTEVLLDHLKAHAEEKPCSG [P22C], for which the protein stability index was 4.58.

Consider LELGSTEVLLDHLKAHAEEKPFSG [P22F], for which the protein stability index was determined as 3.35. With LELGSTEVLLDHLKAHAEEKPTSG [P22T] the figure was 4.88; with LELGSTEVLLDHLKAHAEEKPVSG [P22V], 3.81. As for LELGSTEVLLDHLKAHAEEKPDSG [P22D], the protein stability index came out at 4.88. With LELGSTEVLLDHLKAHAEEKPESG [P22E] the figure was 5.08. For LELGSTEVLLDHLKAHAEEHPPSG [K20H], the protein stability index is 3.59. With LELGSTEVLLDHLKAHAEEGPPSG [K20G], the protein stability index was 4.22. LELGSTEVLLDHLKAHAEEMPPSG [K20M]: the protein stability index was 4.01. With LELGSTEVLLDHLKAHAEEEPPSG [K20E] the figure was 5.18; with LELGSTEVLLDHLKAHAEEWPPSG [K20W], 4.06; with LELGSTEVLLDHLKAHAEESPPSG [K20S], 4.21.

For LELGSTEVLLDHLKAHAEEVPPSG [K20V], the protein stability index was 4.41.

Regarding LELGSTEVLLDHLKAHAEEFPPSG [K20F], the protein stability index stood at 2.9.

For LELGSTEVLLDHLKAHAEDKPPSG [E19D], the protein stability index turned out to be 4.48. The value for LELGSTEVLLDHLKAHAEPKPPSG [E19P] was 4.28; that for LELGSTEVLLDHLKAHAEWKPPSG [E19W] was 3.23. On to LELGSTEVLLDHLKAHAETKPPSG [E19T], for which the protein stability index is 3.55. For the variant LELGSTEVLLDHLKAHAENKPPSG [E19N], the protein stability index came to 4.03. Regarding LELGSTEVLLDHLKAHAEFKPPSG [E19F], the protein stability index was 2.33. With LELGSTEVLLDHLKAHAELKPPSG [E19L] the figure was 2.64; with LELGSTEVLLDHLKAHAEAKPPSG [E19A], 3.73. With LELGSTEVLLDHLKAYAEEKPPSG [H16Y] the figure was 3.33; with LELGSTEVLLDHLKARAEEKPPSG [H16R], 4.28.
